Target: git1_human GIT1 (UniProt Q9Y2X7)
Sequence (Q9Y2X7 whole entry): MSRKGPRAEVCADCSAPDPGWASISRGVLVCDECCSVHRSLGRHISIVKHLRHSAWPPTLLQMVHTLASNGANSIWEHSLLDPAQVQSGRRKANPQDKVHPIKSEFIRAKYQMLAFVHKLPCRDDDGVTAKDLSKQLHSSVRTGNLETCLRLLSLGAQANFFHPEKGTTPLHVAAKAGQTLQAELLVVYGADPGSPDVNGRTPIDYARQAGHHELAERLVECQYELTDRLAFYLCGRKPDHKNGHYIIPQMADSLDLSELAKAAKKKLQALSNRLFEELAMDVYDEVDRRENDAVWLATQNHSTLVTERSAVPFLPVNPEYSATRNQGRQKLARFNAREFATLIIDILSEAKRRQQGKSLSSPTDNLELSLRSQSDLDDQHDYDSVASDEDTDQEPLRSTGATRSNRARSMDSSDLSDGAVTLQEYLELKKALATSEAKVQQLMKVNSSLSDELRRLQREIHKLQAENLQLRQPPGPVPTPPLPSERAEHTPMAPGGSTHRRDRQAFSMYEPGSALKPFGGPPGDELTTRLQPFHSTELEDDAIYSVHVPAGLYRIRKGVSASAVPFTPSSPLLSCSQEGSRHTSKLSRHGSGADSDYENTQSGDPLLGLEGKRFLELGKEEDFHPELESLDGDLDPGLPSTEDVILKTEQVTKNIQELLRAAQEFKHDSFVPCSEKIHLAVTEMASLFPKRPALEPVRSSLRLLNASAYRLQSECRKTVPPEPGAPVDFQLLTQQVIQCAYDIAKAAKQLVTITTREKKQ

Chain of Paxillin (Gallus gallus (Chicken)), P49024 S273D (P49024 whole entry S273D): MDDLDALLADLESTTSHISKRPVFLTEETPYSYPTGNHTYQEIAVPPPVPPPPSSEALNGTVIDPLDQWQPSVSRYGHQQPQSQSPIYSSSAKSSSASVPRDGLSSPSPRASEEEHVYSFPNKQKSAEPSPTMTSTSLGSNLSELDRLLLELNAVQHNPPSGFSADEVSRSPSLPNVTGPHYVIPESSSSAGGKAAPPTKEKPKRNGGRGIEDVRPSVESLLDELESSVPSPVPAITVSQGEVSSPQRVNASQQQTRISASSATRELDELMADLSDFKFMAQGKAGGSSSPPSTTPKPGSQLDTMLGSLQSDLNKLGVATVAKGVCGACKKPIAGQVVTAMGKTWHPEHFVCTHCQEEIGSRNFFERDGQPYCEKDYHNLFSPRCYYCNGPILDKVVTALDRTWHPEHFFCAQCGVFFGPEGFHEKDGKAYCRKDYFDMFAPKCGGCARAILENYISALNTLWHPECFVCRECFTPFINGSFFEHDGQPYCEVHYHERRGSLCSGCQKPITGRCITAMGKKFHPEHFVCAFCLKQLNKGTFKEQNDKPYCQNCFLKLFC
Chain of Paxillin (Gallus gallus (Chicken)), P49024 S273A (P49024 whole entry S273A): as the sequence (P49024 whole entry S273D) above, with D273A counted along it

Substance	effect of a mutation on the interaction
Paxillin (Gallus gallus (Chicken)), P49024 S273A	decreasing interaction
Paxillin (Gallus gallus (Chicken)), P49024 S273D	increasing interaction
